Results on 1 molecule are retold here after paper PMC8837617 (2022).

What is called Kd is the concentration at which binding is half-saturated. A higher Kd goes with weaker binding.

No end group written: not given here. *: point of attachment. 5FAM = O=C1OC2(c3ccc(O)cc3Oc3cc(O)ccc32)c2ccc(C(=O)*)cc21

The target in the assay is MAPK ERK2 (human, UniProt P28482 1-360). The assay is described as follows: FP.
MAPK ERK2, sequence (P28482 whole entry): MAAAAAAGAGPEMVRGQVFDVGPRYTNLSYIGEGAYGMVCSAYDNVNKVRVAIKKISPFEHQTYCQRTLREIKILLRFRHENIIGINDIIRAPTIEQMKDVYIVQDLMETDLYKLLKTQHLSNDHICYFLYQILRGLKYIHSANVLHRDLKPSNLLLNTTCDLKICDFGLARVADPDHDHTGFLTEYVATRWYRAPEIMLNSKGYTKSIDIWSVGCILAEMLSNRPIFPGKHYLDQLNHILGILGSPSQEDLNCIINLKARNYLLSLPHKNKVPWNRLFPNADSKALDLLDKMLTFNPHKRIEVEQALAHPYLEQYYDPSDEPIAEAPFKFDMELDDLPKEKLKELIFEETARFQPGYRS

B1: fluorescent reporter peptide fl-HePTP (peptide)
chain: 5FAM-RLQERRGSNVALMLDV
B1 returned a Kd of 23.9 µM.
